In article PMC11873932:

Target: Protein Serine Kinase H1 (PSKH1), recombinant full-length, wild type (human) (UniProt P11801)
Sequence (P11801 whole entry): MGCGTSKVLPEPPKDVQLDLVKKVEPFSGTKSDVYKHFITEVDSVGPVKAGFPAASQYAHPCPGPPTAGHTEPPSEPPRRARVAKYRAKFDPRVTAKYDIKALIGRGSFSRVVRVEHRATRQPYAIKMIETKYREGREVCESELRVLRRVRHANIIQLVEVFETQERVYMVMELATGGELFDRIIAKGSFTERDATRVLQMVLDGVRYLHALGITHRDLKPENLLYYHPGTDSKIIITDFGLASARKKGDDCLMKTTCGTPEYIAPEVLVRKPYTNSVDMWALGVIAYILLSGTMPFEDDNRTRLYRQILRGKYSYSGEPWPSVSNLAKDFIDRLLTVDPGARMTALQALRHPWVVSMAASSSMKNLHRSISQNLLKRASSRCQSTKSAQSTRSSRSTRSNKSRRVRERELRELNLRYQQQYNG

**Q.** What does the source list for “Calmodulin, recombinant (His6-Calmodulin) (from UniProt P0DP23 1-149) (natural protein)”?
**A.** half-maximal activation (EC50) of HA-tagged PSKH1 (10 ng) kinase activity, titration of CaM 0-1,000 nM, radiometric assay: 58.7 nM; radiometric kinase assay (ADR1 peptide phosphorylation) of HA-tagged PSKH1 (10 ng) with Ca2+-CaM (1 uM): 10 fold
